Among the data in patent US20240197872A1 are percentage of lysed target cells, Daudi, E:T 2:1 (Ctrl-gdT cells without rituximab: 19.68%), percentage of lysed target cells, Daudi, E:T 10:1 (Ctrl-gdT cells without rituximab: 43.66%) and percentage of lysed target cells, Raji, E:T 10:1 (Ctrl-gdT cells without rituximab: 43.13%) values, retold here.

For this experiment, the target named is CD20 on CD20-positive human lymphoma cell lines Raji and Daudi (human) (UniProt P11836). As to the kind of experiment: cell-based or functional assay.
Chain of UniProt P11836 (P11836 whole entry): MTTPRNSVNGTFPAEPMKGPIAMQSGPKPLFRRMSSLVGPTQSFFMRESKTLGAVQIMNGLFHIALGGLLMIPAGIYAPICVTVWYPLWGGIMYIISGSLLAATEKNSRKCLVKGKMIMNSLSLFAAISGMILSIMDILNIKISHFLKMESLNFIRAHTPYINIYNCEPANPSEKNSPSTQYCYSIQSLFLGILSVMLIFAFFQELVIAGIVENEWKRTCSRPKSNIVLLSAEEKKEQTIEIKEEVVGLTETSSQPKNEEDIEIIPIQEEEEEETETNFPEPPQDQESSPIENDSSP

The substance “rituximab (commercially available anti-CD20 antibody, Rituxan), conjugated to an ssDNA linker and hybridised to the surface of gdT cells (ACE-gdT-CD20 cells)” yielded a percentage of lysed target cells, Daudi, E:T 2:1 (Ctrl-gdT cells without rituximab: 19.68%) of 41.2%; a percentage of lysed target cells, Daudi, E:T 10:1 (Ctrl-gdT cells without rituximab: 43.66%) of 71.2%; a percentage of lysed target cells, Raji, E:T 10:1 (Ctrl-gdT cells without rituximab: 43.13%) of 69.4%.
